Assay results reported in patent EP2814500B1 (Ecole Polytechnique Fédérale de Lausanne (EPFL), dated 2020).
Blank lines part the entries; values can stand above or below the binder they belong to.

Assays:
[1] = target: T1, mouse glycophorin-A (GYPA) on the mouse erythrocyte surface (mouse, UniProt P14220 1-168); experiment: photo-crosslinking of biotinylated peptide on whole mouse erythrocytes, streptavidin Western blot
[2] = target: T1, mouse glycophorin-A (GYPA) on the mouse …; experiment: photo-crosslinking of biotinylated peptide on whole mouse erythrocytes, streptavidin bead purification, streptavidin and anti-GYPA Western blots

- binding result [1]: no binding
B1: mismatch peptide (H2N-PLLTVGMDLWPWGGSGCRG-CONH2) conjugated to Mts-Atf-biotin (peptide)
peptide: H-PLLTVGMDLWPWGGSGCRG-NH2
modifications: not fully specified; also: conjugated to Mts-Atf-biotin, site not given here
notes: Control peptide with the same residues as ERY1 in scrambled order

- binding result [2]: binds
B2: ERY1 peptide (H2N-WMVLPWLPGTLDGGSGCRG-CONH2) functionalized with biotin and a photoactivatable crosslinker (peptide)
peptide: H-WMVLPWLPGTLDGGSGCRG-NH2
modifications: also: conjugated to Mts-Atf-biotin, site not given here
notes: Synthetic peptide: the ERY1 12-mer followed by a GGSG linker, Cys and Arg-Gly; also called biotinylated soluble peptide; peptide-biotin complex
